Experimental data published in PMC12177071, “Divergence in a eukaryotic transcription factor’s co-TF dependence involves multiple intrinsically disordered regions”.

T1: CgPho4 DBD (Candida glabrata, UniProt Q6FVW0 452-533)
T1 sequence: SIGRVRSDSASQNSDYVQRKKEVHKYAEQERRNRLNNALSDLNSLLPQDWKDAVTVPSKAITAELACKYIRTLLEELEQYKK

T2: ScPho4 DBD (Saccharomyces cerevisiae, UniProt P07270 236-312)
T2 sequence: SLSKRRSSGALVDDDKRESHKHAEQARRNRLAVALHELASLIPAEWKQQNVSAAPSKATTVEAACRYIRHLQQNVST


What was measured:
CgPho4 DBD [1] = biological target: T1, CgPho4 DBD; test: BLI; mean of 5 replicates; 30 C; BLI: 1x PBS pH 7.4, 0.01% BSA, 0.002% Tween-20, 0.005% sodium azide, 30 C; EMSA: 20 mM Tris-HCl pH 8, 150 mM KCl, 10% glycerol, 5 mM MgCl2, 1 mM EDTA, 1 mM DTT, 4 C; conditions: protein: recombinant; tags: C-terminal 6xHis; chain copies: 2; blunt
ScPho4 DBD [2] = biological target: T2, ScPho4 DBD; test: as above; conditions: protein: recombinant; tags: C-terminal 6xHis; chain copies: 2; blunt
CgPho4 DBD [3] = biological target: T1, CgPho4 DBD; test: EMSA; 5 mM MgCl2, 1 mM EDTA; 4 C; BLI: 1x PBS pH 7.4, 0.01% BSA, 0.002% Tween-20, 0.005% sodium azide, 30 C; EMSA: 20 mM Tris-HCl pH 8, 150 mM KCl, 10% glycerol, 5 mM MgCl2, 1 mM EDTA, 1 mM DTT, 4 C; conditions: protein: recombinant; tags: C-terminal 6xHis; chain copies: 2; label: IR700; blunt
ScPho4 DBD [4] = biological target: T2, ScPho4 DBD; test: as above; conditions: protein: recombinant; tags: C-terminal 6xHis; chain copies: 2; label: IR700; blunt

Binder	Kd (CgPho4 DBD [1])	Kd (ScPho4 DBD [2])	Kd (CgPho4 DBD [3])	Kd (ScPho4 DBD [4])
17-bp consensus E-box, BLI probe (dsDNA) DNA 1: CTAGTCCCACGTGTGAG DNA 2: CTCACACGTGGGACTAG	1.2 nM	5.2 nM		
17-bp consensus E-box, EMSA probe (dsDNA) DNA 1: CTAGTCCCACGTGTGAG DNA 2: CTCACACGTGGGACTAG			1.9 nM	5.5 nM
